Consider 5 molecules from patent publication US20120134993A1 (ZymoGenetics, published 2012).

The chains are these.
T1: recombinant human FGF6 (human, UniProt P10767 83-208, limits assumed)
T1 sequence (looked up): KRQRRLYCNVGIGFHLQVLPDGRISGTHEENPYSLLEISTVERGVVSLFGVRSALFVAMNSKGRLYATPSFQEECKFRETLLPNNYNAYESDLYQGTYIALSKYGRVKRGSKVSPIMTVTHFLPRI

T2: recombinant human FGF-8b (human, UniProt P55075-3 23-215)
T2 sequence (looked up): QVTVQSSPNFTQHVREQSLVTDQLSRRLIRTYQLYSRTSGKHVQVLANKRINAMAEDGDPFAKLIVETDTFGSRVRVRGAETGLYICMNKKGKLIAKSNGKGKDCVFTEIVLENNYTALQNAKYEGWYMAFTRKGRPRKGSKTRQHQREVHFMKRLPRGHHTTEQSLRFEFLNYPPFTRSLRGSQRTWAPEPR

T3: recombinant human FGF4 (human, UniProt P08620 31-206, limits assumed)
T3 sequence (looked up): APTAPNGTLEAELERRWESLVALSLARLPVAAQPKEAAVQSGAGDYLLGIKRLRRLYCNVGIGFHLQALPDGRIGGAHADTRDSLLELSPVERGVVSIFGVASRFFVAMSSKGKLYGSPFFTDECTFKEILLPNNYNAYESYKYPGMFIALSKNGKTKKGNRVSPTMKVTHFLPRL

B1: FGFR3IIIc(143-375)(S249W) Fc5, truncated FGFR3-Fc S249W (A2258F) (Fc fusion)
chain: DTGVDTGAPYWTRPERMDKKLLAVPAANTVRFRCPAAGNPTPSISWLKNGREFRGEHRIGGIKLRHQQWSLVMESVVPSDRGNYTCVVENKFGSIRQTYTLDVLERWPHRPILQAGLPANQTAVLGSDVEFHCKVYSDAQPHIQWLKHVEVNGSKVGPDGTPYVTVLKTAGANTTDKELEVLSLHNVTFEDAGEYTCLAGNSIGFSHHSAWLVVLPAEEELVEADEAGSVYAGEPKSSDKTHTCPPCPAPEAEGAPSVFLFPPKPKDTLMISRTPEVTCVVVDVSHEDPEVKFNWYVDGVEVHNAKTKPREEQYNSTYRVVSVLTVLHQDWLNGKEYKCKVSNKALPSSIEKTISKAKGQPREPQVYTLPPSRDELTKNQVSLTCLVKGFYPSDIAVEWESNGQPENNYKTTPPVLDSDGSFFLYSKLTVDKSRWQQGNVFSCSVMHEALHNHYTQKSLSLSPGK
notes: also called FGFR3 A2258F; FGFR3A2258F
B2: recombinant human FGF-17 (ligand, UniProt O60258 23-216, looked up)
chain: TQGENHPSPNFNQYVRDQGAMTDQLSRRQIREYQLYSRTSGKHVQVTGRRISATAEDGNKFAKLIVETDTFGSRVRIKGAESEKYICMNKRGKLIGKPSGKSKDCVFTEIVLENNYTAFQNARHEGWFMAFTRQGRPRQASRSRQNQREAHFIKRLYQGQLPFPNHAEKQKQFEFVGSAPTRRTKRTRRPQPLT
B3: FGFR2alphaIIIc(145-377) Fc5, truncated FGFR2-Fc (A2559F) (Fc fusion)
chain: SENSNNKRAPYWTNTEKMEKRLHAVPAANTVKFRCPAGGNPMPTMRWLKNGKEFKQEHRIGGYKVRNQHWSLIMESVVPSDKGNYTCVVENEYGSINHTYHLDVVERSPHRPILQAGLPANASTVVGGDVEFVCKVYSDAQPHIQWIKHVEKNGSKYGPDGLPYLKVLKAAGVNTTDKEIEVLYIRNVTFEDAGEYTCLAGNSIGISFHSAWLTVLPAPGREKEITASPDYLEEPKSSDKTHTCPPCPAPEAEGAPSVFLFPPKPKDTLMISRTPEVTCVVVDVSHEDPEVKFNWYVDGVEVHNAKTKPREEQYNSTYRVVSVLTVLHQDWLNGKEYKCKVSNKALPSSIEKTISKAKGQPREPQVYTLPPSRDELTKNQVSLTCLVKGFYPSDIAVEWESNGQPENNYKTTPPVLDSDGSFFLYSKLTVDKSRWQQGNVFSCSVMHEALHNHYTQKSLSLSPGK
notes: also called FGFR2A2559F; FGFR2 A2559F
B4: FGFR2alphaIIIc(145-377)(P253R) Fc5, truncated FGFR2-Fc P253R (A2561F) (Fc fusion)
chain: B3 chain with P109R
notes: also called FGFR2 A2561F; construct #1950
B5: FGFR3IIIc(23-375)(S249W) Fc5, full-length FGFR3-Fc S249W (A2256F) (Fc fusion)
chain: ESLGTEQRVVGRAAEVPGPEPGQQEQLVFGSGDAVELSCPPPGGGPMGPTVWVKDGTGLVPSERVLVGPQRLQVLNASHEDSGAYSCRQRLTQRVLCHFSVRVTDAPSSGDDEDGEDEAEDTGVDTGAPYWTRPERMDKKLLAVPAANTVRFRCPAAGNPTPSISWLKNGREFRGEHRIGGIKLRHQQWSLVMESVVPSDRGNYTCVVENKFGSIRQTYTLDVLERWPHRPILQAGLPANQTAVLGSDVEFHCKVYSDAQPHIQWLKHVEVNGSKVGPDGTPYVTVLKTAGANTTDKELEVLSLHNVTFEDAGEYTCLAGNSIGFSHHSAWLVVLPAEEELVEADEAGSVYAGEPKSSDKTHTCPPCPAPEAEGAPSVFLFPPKPKDTLMISRTPEVTCVVVDVSHEDPEVKFNWYVDGVEVHNAKTKPREEQYNSTYRVVSVLTVLHQDWLNGKEYKCKVSNKALPSSIEKTISKAKGQPREPQVYTLPPSRDELTKNQVSLTCLVKGFYPSDIAVEWESNGQPENNYKTTPPVLDSDGSFFLYSKLTVDKSRWQQGNVFSCSVMHEALHNHYTQKSLSLSPGK
notes: also called FGFR3 A2256F; FGFR3A2256F

The target in test [1] is B2. In words: direct binding ELISA, FGF-17 coated, FGFR-Fc titrated with heparin, anti-human Fc-HRP. The protocol: (§1) To determine the binding capability of FGFR-Fc to their respective ligands, an ELISA was run. Recombinant human FGF-8b or FGF-17 (R&D Systems) was plated at 100 nM on a Nunc Maxisorp 96-well plate for 1 h at room temperature with shaking. The plates were blocked with BLOTTO (Thermo Fisher Scientific, Rockford, Ill.) for 1 h at room temperature, then washed 5 times with ELISA C buffer (137 mM NaCl, 2.7 mM KCl, 7.2 mM Na₂HPO₄, 1.5 mM KH₂PO₄, 0.05% (v/w) polysorbate 20, pH 7.2). FGFR-Fcs were diluted to 100 nM with PBS/0.1×BLOTTO/10 ug/ml porcine heparin (Sigma, St. Louis, Mo.) and then 1:2 serial dilutions were made, ending at 0.10 nM. 100 μL of FGFR-Fcs were plated and incubated at 4° C. overnight. The following day, the plates were washed 5 times with ELISA C and then incubated with 2.5 μg/mL horseradish peroxidase-conjugated anti-human Fc antibody (Jackson ImmunoResearch Laboratories, West Grove, Pa.) for 1 h at room temperature with shaking. After 5 washes with ELISA C, 100 μL of OPD in citrate buffer (5 mg of o-phenylenediamine in 63 mM sodium citrate, 37 mM citric acid, pH 5.0, 0.03% H₂O₂) was added for detection. After 2-5 minutes, the reaction was stopped with 1 N H₂SO₄. The plates were read at 490 nm using SoftMaxPro software.

Test [2] has as its target T1, recombinant human FGF6. In words: SPR (Biacore T100), FGFR-Fc captured on protein A, FGF6 analyte with heparin, bivalent analyte model (KA1). The procedure:
(§2) Materials and Methods: Binding kinetics and affinity studies were performed on a Biacore T100™ system (GE Healthcare, Piscataway, N.J.). Methods for the Biacore T100™ were programmed using Biacore T100™ Control Software, v 2.0. Since each of the FGF receptor molecules contained a human Fc domain, biotinylated protein-A (Thermo Fisher Scientific Inc, Rockford, Ill.) was used as a capture reagent for these studies. Biotinylated protein-A was diluted to concentration of 50 μg/mL in HBS-EP buffer (10 mM HEPES, 150 mM NaCl, 3 mM EDTA, 0.05% Surfactant P20; GE Healthcare, Piscataway, N.J.), and then captured to all four flow cells of a SA (streptavidin) sensor chip. A density of approximately 1100 RU was obtained for each flow cell. Each FGF receptor molecule was subsequently captured via protein-A onto a separate flow cell of the SA chip at an approximate density of 150-250 RU. The Biacore instrument measures the mass of protein bound to the sensor chip surface, and thus, capture of the receptor was verified for each cycle.
(§3) For kinetic binding studies, serial 1:5 dilutions of FGF ligands were prepared from 200 nM-0.06 nM. These samples were injected over the surface and allowed to specifically bind to the FGF receptor captured on the sensor chip. Injections of each ligand concentration were performed with an association time of 7 minutes and dissociation time of 15 minutes. Kinetic binding studies were performed with a flow rate of 50 μL/min. All binding experiments were performed at 25° C. in HBS-P buffer (10 mM HEPES, 150 mM NaCl, 0.05% Surfactant P20, pH 7.4; GE Healthcare, Piscataway, N.J.), containing 50 μg/mL heparin (Calbiochem, La Jolla, Calif.).
(§4) Between cycles, the flow cell was washed with 20 mM hydrochloric acid to regenerate the surface. This wash step removed both the captured FGF receptor and any bound FGF ligand from the protein-A surface, and allowed for the subsequent binding of the next test sample. Data was compiled using the Biacore T100™ Evaluation software (version 2.0). Data was processed by subtracting reference flow cell and blank injections. Baseline stability was assessed to ensure that the regeneration step provided a consistent binding surface throughout the sequence of injections. Duplicate injection curves were checked for reproducibility. Binding curves were globally fit to the bivalent analyte model.
Background: In SPR one partner is held on a chip, and binding of the other changes the refractive index at the surface.

For test [3], the target named is T2, recombinant human FGF-8b. In words: cell-based or functional assay.
Test [4] concerns the target T1, recombinant human FGF6. In words: SPR (Biacore T100), FGFR-Fc captured on protein A, FGF6 analyte with heparin, bivalent analyte model (KD1). The procedure:
as §2, §3, §4

Test [5] has as its target T1, recombinant human FGF6. In words: SPR (Biacore T100), FGFR-Fc captured on protein A, FGF6 analyte with heparin, bivalent analyte model (ka1). The protocol:
as §2, §3, §4

A further test addresses human FGF-9 (human, UniProt P31371 4-208). In words: cell-based or functional assay.
Test [6] concerns the target T1, recombinant human FGF6. In words: SPR (Biacore T100), FGFR-Fc captured on protein A, FGF6 analyte with heparin, bivalent analyte model (kd1). The procedure:
as §2, §3, §4

The target of the next test is recombinant human FGF2 (human, UniProt P09038 143-288, limits assumed). In words: cell-based or functional assay.
For another test, the target named is T3, recombinant human FGF4. In words: cell-based or functional assay.
Test [7] concerns the target T1, recombinant human FGF6. In words: cell-based or functional assay.
Another test addresses recombinant human FGF1 (human, UniProt P05230 16-155). In words: cell-based or functional assay.
For test [8], the target named is T2, recombinant human FGF-8b. In words: direct binding ELISA, FGF-8b coated, FGFR-Fc titrated with heparin, anti-human Fc-HRP. The protocol:
as §1

Test [9] has as its target T4, human FGFR4-Fc (R&D Systems) (human, UniProt P22455 22-369).
T4 construct: Bought; also called FGFR4 (R&D systems); R&D FGFR4; not shown: Fc of the commercial fusion; not described
In words: ELISA: FGF-17 coated at 100 nM, FGFR-Fc 100 to 0.10 nM in 1:2 steps with 10 ug/ml heparin, anti-human Fc-HRP, OD 490 nm. The procedure:
as §1

Test [10] concerns the target B2. The description is as above. The procedure:
as §1

Substitutions are numbered along the chain they refer to. In names and notes the source's numbering stands.

recombinant human FGF1, sequence (P05230 16-155 limits assumed): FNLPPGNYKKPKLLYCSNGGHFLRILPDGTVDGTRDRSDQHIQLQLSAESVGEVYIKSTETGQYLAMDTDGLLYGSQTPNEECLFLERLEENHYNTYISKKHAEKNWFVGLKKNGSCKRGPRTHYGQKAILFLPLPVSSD
recombinant human FGF2, sequence (P09038 143-288 limits assumed): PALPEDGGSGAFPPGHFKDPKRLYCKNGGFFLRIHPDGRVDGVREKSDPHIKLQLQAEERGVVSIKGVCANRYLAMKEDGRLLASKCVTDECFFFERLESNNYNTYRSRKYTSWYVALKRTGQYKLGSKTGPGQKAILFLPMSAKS

Broadly, the IC50 is the concentration that inhibits the measured activity by half. In general, kon refers to a measure of how fast the partners come together. For orientation: koff means the rate constant with which the complex falls apart. For the molecule B1, the IC50 with recombinant human FGF-17 [1] was 1.31 nM; with recombinant human FGF-8b [8], 10 nM. The Ka with recombinant human FGF6 [2] is 5e+08 M⁻¹. Moreover, the “Proliferation IC50, FGF8b-stimulated LNCap cells (3H-thymidine)” value in the test with recombinant human FGF-8b [3] was determined as 0.02 nM. In the test with recombinant human FGF6 [4], the Kd is 2 nM. In addition, the kon in the test with recombinant human FGF6 [5] was 300000 M⁻¹ s⁻¹. Also, in the test with human FGF-9, the “Proliferation IC50, FGF-9-stimulated HCO osteoblasts (3H-thymidine)” value was found to be 0.75 nM. In addition, in the test with recombinant human FGF6 [6], the koff came out at 0.0006 s⁻¹. In addition, the “IC50, FGF-stimulated HUVEC proliferation (3H-thymidine)” value is 0.67 nM with recombinant human FGF2, 0.68 nM with recombinant human FGF4, 0.78 nM in the test with recombinant human FGF6 [7] and 0.55 nM with recombinant human FGF1.
For B2, the binding result in test [9] is on record as “binds”.
For the molecule B3, in the test with recombinant human FGF-17 [10], the binding result is “no binding (tested: 100 nM)”.
Regarding B4, in the test with recombinant human FGF-17 [10], the binding result was “no binding (tested: 100 nM)”.
For the molecule B5, the IC50 with recombinant human FGF-17 [1] was 8.66 nM; in the test with recombinant human FGF-8b [8], 37.7 nM. For the same molecule, the Ka with recombinant human FGF6 [2] is 1e+09 M⁻¹. In addition, the “Proliferation IC50, FGF8b-stimulated LNCap cells (3H-thymidine)” value in the test with recombinant human FGF-8b [3] is 0.01 nM. Moreover, in the test with recombinant human FGF6 [4], the Kd worked out at 0.8 nM. For the same molecule, in the test with recombinant human FGF6 [5], the kon was determined as 600000 M⁻¹ s⁻¹. Moreover, the “Proliferation IC50, FGF-9-stimulated HCO osteoblasts (3H-thymidine)” value with human FGF-9 turned out to be 0.84 nM. In addition, the koff with recombinant human FGF6 [6] was found to be 0.0005 s⁻¹. In addition, the “IC50, FGF-stimulated HUVEC proliferation (3H-thymidine)” value came out at 1 nM with recombinant human FGF2, 0.74 nM in the test with recombinant human FGF4, 0.95 nM with recombinant human FGF6 [7] and 0.82 nM with recombinant human FGF1.
